# Assay results from IntAct's records for PubMed 22396535.
# B1: Paired immunoglobulin-like type 2 receptor alpha (Homo sapiens), Q9UKJ1 (parent)
# chain: MGRPLLLPLLPLLLPPAFLQPSGSTGSGPSYLYGVTQPKHLSASMGGSVEIPFSFYYPWELATAPDVRISWRRGHFHRQSFYSTRPPSIHKDYVNRLFLNWTEGQKSGFLRISNLQKQDQSVYFCRVELDTRSSGRQQWQSIEGTKLSITQAVTTTTQRPSSMTTTWRLSSTTTTTGLRVTQGKRRSDSWHISLETAVGVAVAVTVLGIMILGLICLLRWRRRKGQQRTKATTPAREPFQNTEEPYENIRNEGQNTDPKLNPKDDGIVYASLALSSSTSPRAPPSHRPLKSPQNETLYSVLKA
# partner: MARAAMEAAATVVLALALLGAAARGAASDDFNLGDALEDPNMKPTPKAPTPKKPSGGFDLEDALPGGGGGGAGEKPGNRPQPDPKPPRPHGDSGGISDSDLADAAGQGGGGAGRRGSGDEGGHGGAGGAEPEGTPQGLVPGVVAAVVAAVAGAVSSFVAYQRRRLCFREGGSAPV
# B2: Paired immunoglobulin-like type 2 receptor alpha (Homo sapiens), Q9UKJ1 (parent)
# chain: B1 chain
# B3: Paired immunoglobulin-like type 2 receptor alpha (Homo sapiens), Q9UKJ1 (parent)
# chain: B1 chain
# partner: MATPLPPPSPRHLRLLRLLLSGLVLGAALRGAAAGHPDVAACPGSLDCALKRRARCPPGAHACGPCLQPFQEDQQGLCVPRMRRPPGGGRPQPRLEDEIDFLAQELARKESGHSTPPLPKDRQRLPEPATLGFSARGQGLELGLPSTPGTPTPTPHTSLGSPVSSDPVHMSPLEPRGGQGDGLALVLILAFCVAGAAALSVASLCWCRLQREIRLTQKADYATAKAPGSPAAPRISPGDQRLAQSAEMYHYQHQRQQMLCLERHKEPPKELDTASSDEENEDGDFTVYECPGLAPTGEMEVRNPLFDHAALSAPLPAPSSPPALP
# Variants of: B1
# Details: with cd99_mouse Cd99, Q8VCN6
row,effect of a mutation on the interaction,Variant
1,disrupting interaction strength,R126A

# Variants of: B2
# Details: with col12_human COLEC12, Q5KU26
# Sequence of col12_human COLEC12, Q5KU26 (Q5KU26 whole entry): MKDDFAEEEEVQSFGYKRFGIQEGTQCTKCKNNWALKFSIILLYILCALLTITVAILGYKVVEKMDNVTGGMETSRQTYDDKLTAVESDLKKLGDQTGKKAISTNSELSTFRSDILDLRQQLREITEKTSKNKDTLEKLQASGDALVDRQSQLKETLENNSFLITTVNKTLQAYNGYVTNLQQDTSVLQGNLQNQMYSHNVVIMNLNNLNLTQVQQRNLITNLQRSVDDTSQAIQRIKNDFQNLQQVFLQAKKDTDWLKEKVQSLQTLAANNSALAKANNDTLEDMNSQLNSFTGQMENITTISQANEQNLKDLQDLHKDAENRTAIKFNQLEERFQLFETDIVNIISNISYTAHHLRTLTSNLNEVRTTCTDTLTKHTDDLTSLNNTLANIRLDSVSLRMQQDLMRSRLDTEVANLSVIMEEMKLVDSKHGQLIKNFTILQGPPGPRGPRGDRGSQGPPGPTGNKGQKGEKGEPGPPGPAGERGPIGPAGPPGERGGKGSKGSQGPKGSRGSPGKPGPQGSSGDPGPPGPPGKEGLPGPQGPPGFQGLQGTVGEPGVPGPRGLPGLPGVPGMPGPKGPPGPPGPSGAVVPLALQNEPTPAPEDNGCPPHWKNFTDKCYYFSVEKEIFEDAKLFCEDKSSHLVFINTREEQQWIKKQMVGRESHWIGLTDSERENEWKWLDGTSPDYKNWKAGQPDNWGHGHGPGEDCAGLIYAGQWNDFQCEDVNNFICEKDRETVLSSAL
row,effect of a mutation on the interaction,Variant
1,disrupting interaction strength,R126A

# Variants of: B3
# Details: with npdc1_human NPDC1, Q9NQX5
row,effect of a mutation on the interaction,Variant
1,disrupting interaction strength,R126A
